Measured values from patent publication US20120245099A1, “APOPTOSIS INDUCER” (NIHON UNIVERSITY, priority 2009, published 2012).

Experiments:
Format in all cases: cell-based
Cos cells [1] = assay: LDH activity in supernatant of Cos cells transformed with cDNA for Del-1 or its parts (Example 7); details: APtag4 vector, medium replaced 24 hours after gene transfer, measured after further one hour
Text: cDNA for full-length Del-1 (SEQ ID NO: 4) was integrated into an AP expression vector (APtag4) and then introduced into cultured Cos cells. Likewise, cDNA for a part of Del-1 was also integrated into APtag4 and then introduced into cultured Cos cells. As a control, an AP expression vector free from the above cDNA for full-length Del-1 or a part thereof was used. It should be noted that the members each used as a part of Del-1 were EGF-like domains in the full-length Del-1 protein, i.e., EGF1 (E1; cDNA: SEQ ID NO: 26, amino acid sequence: SEQ ID NO: 27), EGF2 (E2; cDNA: SEQ ID NO: 28, amino acid sequence: SEQ ID NO: 29) and EGF3 (E3; cDNA: SEQ ID NO: 6, amino acid sequence: SEQ ID NO: 7), a fusion protein between discoidin I-like domains, i.e., Discoidin1 and Discoidin2 (C1C2; cDNA: SEQ ID NO: 30, amino acid sequence: SEQ ID NO: 31), an amino acid substitution (D136E) mutant of the above full-length Del-1 (Del1m; cDNA: SEQ ID NO: 32, amino acid sequence: SEQ ID NO: 33), as well as an amino acid substitution (D136E) mutant of E3, i.e., E3 D136E (E3m; cDNA: SEQ ID NO: 34, amino acid sequence: SEQ ID NO: 35). […] At 24 hours after gene transfer, the medium in each case was replaced with fresh culture medium and, after further one hour, the supernatant was measured for LDH activity. A cell lysate was prepared for each case and measured for LacZ activity. […]

[2] = test system: P5 cells (vascular endothelial cell line); assay: AP-Del-1 conditioned medium added to cells, chromosomal DNA electrophoresis and silver staining (Example 6); details: 24 hours after addition
Procedure: (§1) cDNA for full-length Del-1 (SEQ ID NO: 4) was integrated into an AP expression vector (APtag4) and then introduced into cultured Cos cells. As a control, an AP expression vector free from the cDNA for full-length Del-1 was used. The resulting culture supernatant was measured for AP activity, normalized for AP fusion protein concentration and then added to a culture of CRL cells (human melanoma cells) or P5 cells (vascular endothelial cell line) (instead of using direct gene transfer, Cos cells were allowed to produce a recombinant protein and the resulting conditioned medium was used, because CRL and P5 were low in the efficiency of gene transfer). At 24 hours after addition, chromosomal DNAs were taken from the cells and electrophoresed on a polyacrylamide gel, followed by silver staining.

[3] = test system: CRL cells (human melanoma cells); assay: as above; details: 24 hours after addition
Procedure: as §1

[4] = test system: P5 cells (vascular endothelial cell line); assay: AP-Del-1 conditioned medium added to cells, H33342 and C3-annexin V staining (Example 5); details: conditioned medium of Cos cells with AP fusion protein, 24 hours after addition
Procedure: (§2) cDNA for full-length Del-1 (SEQ ID NO: 4) was integrated into an alkaline phosphatase (AP) expression vector (APtag4) and then introduced into cultured Cos cells. As a control, an AP expression vector free from the cDNA for full-length Del-1 was used. The resulting culture supernatant was measured for AP activity, normalized for AP fusion protein concentration and then added to a culture of CRL cells (human melanoma cells) or P5 cells (vascular endothelial cell line) (instead of using direct gene transfer, Cos cells were allowed to produce a recombinant protein and the resulting conditioned medium was used, because CRL and P5 were low in the efficiency of gene transfer). At 24 hours after addition, the cells were stained with H33342 and with C3-annexin V for observation.

[5] = test system: CRL cells (human melanoma cells); assay: as above; details: conditioned medium of Cos cells with AP fusion protein, 24 hours after addition
Procedure: as §2

Cos cells [6] = assay: eGFP-Del-1 expression vector in cultured Cos cells, H33342 staining (Example 4); details: expressed as eGFP-Del-1 fusion protein, 24 hours after gene transfer
Procedure: An expression vector designed to carry cDNA encoding eGFP-Del-1 (a fusion protein between eGFP and full-length Del-1) was introduced into cultured Cos cells. At 24 hours after gene transfer, the cells were fixed and stained with H33342.
This would mean that Del-1 secreted from the cells receiving Del-1 gene transfer would also act on their adjacent cells to thereby induce apoptosis in these cells.

Cos cells [7] = assay: Del-1 gene transfer into cultured Cos cells, H33342 nuclear staining, phase contrast and fluorescent microscopy (Example 1); details: 24 hours after gene transfer of cDNA in pcDNA3
Procedure: cDNA for full-length Del-1 (SEQ ID NO: 4) was integrated into an expression vector, pcDNA3 (Invitrogen), and then introduced into cultured Cos cells. As a control, pcDNA3 free from the cDNA for full-length Del-1 was used. At 24 hours after gene transfer, the cells were stained with H33342 (Hoechst) for cell nuclear staining and observed under a phase contrast microscope (transmission image) and a fluorescent microscope (H33342).

Cos cells [8] = assay: Del-1 gene transfer into cultured Cos cells, H33342 and C3-annexin V staining (Example 3); details: 24 hours after gene transfer
Procedure: cDNA for full-length Del-1 (SEQ ID NO: 4) was integrated into an expression vector and then introduced into cultured Cos cells. At 24 hours after gene transfer, the cells were stained with H33342 and with C3-annexin V (annexin V conjugated with the fluorescent dye C3) and then observed under a fluorescent microscope.
It should be noted that annexin V is capable of binding to phosphatidylserine, a component of cell membranes, while phosphatidylserine is known to leak (to be localized) outside of the cell membrane when the cells undergo apoptosis.

Cos cells [9] = assay: Del-1 gene transfer into cultured Cos cells, chromosomal DNA electrophoresis and silver staining (Example 2); details: Cos cells forced to express Del-1 (pcDNA3)
Text: cDNA for full-length Del-1 (SEQ ID NO: 4) was integrated into an expression vector, pcDNA3 (Invitrogen), and then introduced into cultured Cos cells. As a control, pcDNA3 free from the cDNA for full-length Del-1 was used. For normalization of the gene transfer rate, DNA carrying the LacZ gene was also introduced simultaneously. The results obtained are shown in FIG. 2 (left and right panels).
Left panel: Chromosomal DNAs were taken from the cells and electrophoresed on a polyacrylamide gel, followed by silver staining.

B1: full-length Del-1: developmentally regulated endothelial cell locus-1 protein, extracellular matrix protein, amino acid sequence SEQ ID NO: 5 (protein, listed as Mus musculus)
chain: MKHLVAAWLLVGLSLGVPQFGKGDICNPNPCENGGICLSGLADDSFSCECPEGFAGPNCSSVVEVASDEEKPTSAGPCIPNPCHNGGTCEISEAYRGDTFIGYVCKCPRGFNGIHCQHNINECEAEPCRNGGICTDLVANYSCECPGEFMGRNCQYKCSGPLGIEGGIISNQQITASSTHRALFGLRKWYPYYARLNKKGLINAWTAAENDRWPWIQINLQRKMRVTGVITQGAKRIGSPEYIKSYKIAYSNDGKTWAMYKVKGTNEEMVFRGNVDNNTPYANSFTPPIKAQYVRLYPQICRRHCTLRMELLGCELSGCSEPLGMKSGHIQDYQITASSVFRTLNMDMFTWEPRKARLDKQGKVNAWTSGHNDQSQWLQVDLLVPTKVTGIITQGAKDFGHVQFVGSYKLAYSNDGEHWMVHQDEKQRKDKVFQGNFDNDTHRKNVIDPPIYARFIRILPWSWYGRITLRSELLGCAEEE
- increase in LDH activity of supernatant, normalized by LacZ activity (Cos cells [1]): increase in LDH activity
- DNA ladder pattern indicative of apoptosis [2]: ladder pattern indicative of apoptosis was observed
- DNA ladder pattern indicative of apoptosis [3]: ladder pattern indicative of apoptosis was observed
- apoptosis by H33342 and C3-annexin V staining [4]: these cells underwent apoptosis
- apoptosis by H33342 and C3-annexin V staining [5]: these cells underwent apoptosis
- apoptosis (chromosomal aggregation, H33342) in cells expressing the fusion protein (Cos cells [6]): found to undergo apoptosis
- chromosome aggregation (H33342 nuclear staining) (Cos cells [7]): chromosomes were aggregated
- apoptosis by H33342 and C3-annexin V staining (Cos cells [8]): these cells underwent apoptosis
- DNA ladder pattern indicative of apoptosis (Cos cells [9]): ladder pattern indicative of apoptosis was observed
